Source: patent publication US20240124553A1 (WASHINGTON UNIVERSITY, published 2024)

Biological target: T1, Mayaro virus (MAYV) structural proteins on infected cells (Mayaro virus)
T1 construct: whole, on cells
Test: flow cytometry, surface staining of MAYV-infected Vero cells with serial dilutions, % binding to infected cells

B1: Mxra8-Fc (extracellular domain of mouse Mxra8 fused to mouse IgG2b Fc) (Fc fusion)
chain: SGPSGTAAASSSLVSESVVSLAAGTQAVLRCQSPRMVWTQDRLHDRQRVVHWDLSGGPGSQRRRLVDMYSAGEQRVYEPRDRDRLLLSPSAFHDGNFSLLIRAVDRGDEGVYTCNLHHHYCHLDESLAVRLEVTEDPLLSRAYWDGEKEVLVVAHGAPALMTCINRAHVWTDRHLEEAQQVVHWDRQLPGVSHDRADRLLDLYASGERRAYGPPFLRDRVSVNTNAFARGDFSLRIDELERADEGIYSCHLHHHYCGLHERRVFHLQVTEPAFEPPARASPGNGSGHSSAPSPDPTLTRGHSIINVIVPEDHTHPSGPISTINPCPPCKECHKCPAPNLEGGPSVFIFPPNIKDVLMISLTPKVTCVVVDVSEDDPDVQISWFVNNVEVHTAQTQTHREDYNSTIRVVSTLPIQHQDWMSGKEFKCKVNNKDLPSPIERTISKIKGLVRAPQVYILPPPAEQLSRKDVSLTCLVVGFNPGDISVEWTSNGHTEENYKDTAPVLDSDGSYFIYSKLNMKTSKWEKTDSFSCNVRHEGLKNYYLKKTISRSPGK
notes: also called mMxra8-Fc; mouse Mxra8-Fc
  EC50 (read off the curve): ~3 ng/mL
